The values that follow come from paper PMC12638876 (Nature Communications, 2025).

Residue numbers refer to the chain shown, from its start. Numbers in names are those of the source.

The series “split reporter” deals with the molecule itself. The series is described as follows: split reporter.
The series “crystal structure” concerns the molecule itself. The series is described as follows: crystal structure.

B1: CXE15 C14D fused to split YFP (enzyme, Arabidopsis thaliana, UniProt Q9FG13 1-329, looked up)
chain: MGSLGEEPQVAEDDMGLLQLLSNGTVLRSESIDLITQQIPFKNNQTVLFKDSIYHKPNNLHLRLYKPISASNRTALPVVVFFHGGGFCFGSRSWPHFHNFCLTLASSLNALVVSPDYRLAPEHRLPAAFEDAEAVLTWLWDQAVSDGVNHWFEDGTDVDFDRVFVVGDSSGGNIAHQLAVRFGSGSIELTPVRVRGYVLMGPFFGGEERTNSENGPSEALLSLDLLDKFWRLSLPNGATRDHHMANPFGPTSPTLESISLEPMLVIVGGSELLRDRAKEYAYKLKKMGGKRVDYIEFENKEHGFYSNYPSSEAAEQVLRIIGDFMNNLS
Regarding B1, the “fold reduction of BiFC fluorescence against wild-type CXE15” value in “split reporter” was greater than 2 fold.

B2: CXE15 E271Q mutant (enzyme, Arabidopsis thaliana, UniProt Q9FG13 1-329, looked up)
chain: B1 chain with D14C, E271Q
modifications: disulphide bond between the two Cys14 residues in the crystal
B2: the binding result in the series “crystal structure” is “binds”.
